Measurements: publication PMC3940198

Biological target: Burkholderia cenocepacia cytosolic carboxypeptidase (BcCCP) (Burkholderia cenocepacia J2315)
Assay: SEC-MALS; Superdex 200 10/300, 50 mM Tris-HCl, 250 mM NaCl pH 7.5; Wyatt miniDAWN TREOS and Optilab T-rEX detectors

stoichiometry N: 4
Substance: Burkholderia cenocepacia cytosolic carboxypeptidase (BcCCP) (enzyme)
